Article PMC11499381
No end group written: not given here.

What was measured:
[1] = biological target: CTR-C-V_(1–154)/RAMP1 (human) (UniProt O60894)
[2] = biological target: CTR-C-V_(1–154)/RAMP1-C-V_(155–238) (human) (UniProt O60894)
[3] = biological target: WT CTR/RAMP1 (AMY1 receptor) (human) (UniProt O60894)
[4] = biological target: N-V_(1–154)-CTR/N-V_(155–238)-RAMP1 (human) (UniProt O60894)
[5] = biological target: N-V_(1–154)-CTR/RAMP1 (human) (UniProt O60894)
[6] = biological target: CTR/N-V_(155–238)-RAMP1 (human) (UniProt O60894)
[7] = biological target: CTR/RAMP1-C-V_(155–238) (human) (UniProt O60894)

Chain of WT CTR (human) (P30988 25-474): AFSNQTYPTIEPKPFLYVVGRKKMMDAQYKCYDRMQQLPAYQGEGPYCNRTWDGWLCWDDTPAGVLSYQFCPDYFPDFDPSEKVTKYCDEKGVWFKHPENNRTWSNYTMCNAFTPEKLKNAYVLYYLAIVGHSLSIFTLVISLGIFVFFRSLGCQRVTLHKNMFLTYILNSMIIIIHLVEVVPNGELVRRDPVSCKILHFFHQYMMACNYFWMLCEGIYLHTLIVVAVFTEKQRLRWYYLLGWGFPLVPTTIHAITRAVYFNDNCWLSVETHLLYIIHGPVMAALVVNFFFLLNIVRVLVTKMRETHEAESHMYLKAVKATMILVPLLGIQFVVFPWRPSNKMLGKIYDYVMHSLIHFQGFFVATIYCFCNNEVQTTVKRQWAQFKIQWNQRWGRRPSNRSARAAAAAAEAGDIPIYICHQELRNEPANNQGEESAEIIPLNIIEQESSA

| Emax of h-αCGRP-stimulated cAMP production, Cos7 cells, percent of the matched WT curve [1] | pEC50 of h-αCGRP-stimulated cAMP production, Cos7 cells, 15 min [1] [pEC50] | Emax of h-αCGRP-stimulated cAMP production, Cos7 cells, percent of the matched WT curve [2] | pEC50 of h-αCGRP-stimulated cAMP production, Cos7 cells, 15 min [2] [pEC50] | pEC50 of h-αCGRP-stimulated cAMP production, Cos7 cells, 15 min (WT control of the N-terminal series) [3] [pEC50] | Emax of h-αCGRP-stimulated cAMP production, Cos7 cells, percent of the matched WT curve [4] | pEC50 of h-αCGRP-stimulated cAMP production, Cos7 cells, 15 min [4] [pEC50] | Emax of h-αCGRP-stimulated cAMP production, Cos7 cells, percent of the matched WT curve [5] | pEC50 of h-αCGRP-stimulated cAMP production, Cos7 cells, 15 min [5] [pEC50] | Emax of h-αCGRP-stimulated cAMP production, Cos7 cells, percent of the matched WT curve [6] | pEC50 of h-αCGRP-stimulated cAMP production, Cos7 cells, 15 min [6] [pEC50] | pEC50 of h-αCGRP-stimulated cAMP production, Cos7 cells, 15 min, CTR without RAMP1 (WT CTR (human)) [pEC50] | Emax of h-αCGRP-stimulated cAMP production, Cos7 cells, percent of the matched WT curve [7] | pEC50 of h-αCGRP-stimulated cAMP production, Cos7 cells, 15 min [7] [pEC50] | fold loss of calcitonin potency (cAMP production) against WT CTR, Cos7 cells (N-V_(1–154)-CTR (human)) [fold] | fold loss of calcitonin potency (cAMP production) against WT CTR, Cos7 cells (CTR-C-V_(1–154) (human)) [fold] | Molecule |
| --- | --- | --- | --- | --- | --- | --- | --- | --- | --- | --- | --- | --- | --- | --- | --- | --- |
| 81.2 % of WT | 8.41 | 71.5 % of WT | 7.52 | 9.1 | 77.3 % of WT | 8.83 | 74 % of WT | 8.92 | 74.9 % of WT | 8.16 | 6.63 | 83.5 % of WT | 8.62 | – | – | Human αCGRP (from UniProt P06881 83-119) (peptide) |
| – | – | – | – | – | – | – | – | – | – | – | – | – | – | 10 | 3 | CGNLSTCMLGTYTQDFNKFHTFPQTAIGVGAP (ends and bridges not checked; cysteine pairing not given here) [Human calcitonin] |
